Experimental data from patent US20220323445A1, “REDUCING IMMUNOGENICITY TO PEGLOTICASE” (Horizon Therapeutics Ireland DAC, priority 2020, published 2022).

Test system: serum uric acid (sUA)
Experiment: Serum uric acid (sUA) levels and sUA responders, open-label study of pegloticase with MTX (NCT03635957)
Format: in vivo, human
Description: The primary objective is to estimate the response rate during Month 6 (Weeks 20, 22, and 24), as measured by the sustained normalization of serum uric acid (SUA) to <6 mg/dL for at least 80% of the time during Month 6 in subjects receiving KXX with MTX.
The primary efficacy outcome endpoint is the sustained normalization of SUA to <6 mg/dL for at least 80% of the time during month 6 (weeks 20, 22, and 24) in subjects receiving KXX with MTX. This is slightly below the urate solubility threshold and this threshold has been the accepted standard for nearly all modern gout trials. Participants who achieve this endpoint were classified as “responders.” Serum uric acid (SUA) responders may also be defined as participants achieving and maintaining SUA <6 mg/dL for at least 80% of the time during Month 6 (Weeks 20, 22, and 24).
Blood samples may be collected prior to each pegloticase infusion for measurement of SUA levels using the Beckman Coulter AU System Uric Acid procedure. Participants were declared “non-responders” if there were SUA measures >6 mg/dL at 2 consecutive study visits beginning with the week 2 visit. […] If the SUA goal is not maintained before or at the 12-week mark, it was assumed that the participant had developed clinically relevant anti-pegloticase antibody and they received no further infusions. This assumption and subsequent discontinuation of pegloticase was consistent with the protocol of large phase III randomized controlled trials and the product label. A formal stopping rule was 2 occasions of SUA levels of greater than 6 mg/dL.
Clinical Chemistry—Blood samples were collected prior to each pegloticase infusion for measurement of SUA levels (primary efficacy parameter) using the Beckman Coulter AU System Uric Acid procedure. In this procedure uric acid is converted to hydrogen peroxide. Hydrogen peroxide reacts with reagent to produce a chromophore which is read bichromatically at 660/800 nm. The amount of dye formed is proportional to the uric acid concentration in the sample.
Serum samples for measurement of SUA levels were collected at the Screening Visit, the Week −4 Visit (prior to the first dose of MTX), and the Week −2 Visit during the MTX Run-in Period; within 48 hours prior to each pegloticase infusion and after the end of each pegloticase infusion prior to discharge from the site during the Pegloticase+IMM Period; at the non-infusion Week 52/End of Study/Early Termination Visits and at the Post Treatment 3 and 6 Month Follow-up Visits. Additional serum samples for SUA levels were collected at optional non-infusion (Frequent Sampling) Visits at Weeks 1 and 7. […] Subjects with SUA level >6 mg/dL at 2 consecutive visits beginning at Week 2 visit discontinued treatment, completed the End of Pegloticase Infusion Visit procedures within 2 weeks and continued the subject visits according to the protocol (without treatment).
Efficacy analyses were performed using the modified intention-to-treat (mITT) population, defined as all enrolled subjects who received ≥1 dose of pegloticase. The proportion of Month 6 responders was summarized, along with a 95% confidence interval for the proportion. The proportion of Month 3 and overall (Months 3 and 6 combined) responders was analyzed similarly.
A subject was declared a non-responder if the subject had SUA level >6 mg/dL at 2 consecutive study visits beginning with the Week 2 Visit. In addition, a subject who withdraws from study treatment for any reason after the first dose of pegloticase in the KXX+MTX Period and prior to Month 6 (for the primary endpoint) or Month 3 (for the secondary endpoint) was considered a non-responder if SUA values were not collected at the planned time points.
Patients were administered oral MTX (15 mg/week) and folate (1 mg/day) 4 weeks prior to the first pegloticase infusion (Day 1) and throughout the pegloticase treatment period. […]

[1] = Week 24 - Pre-Infusion, mITT, n=11
[2] = Week 26 - Pre-Infusion, Month 6 sUA Responders
[3] = Week 26 - Pre-Infusion, mITT, n=8
[4] = Week 28 - Pre-Infusion, Month 6 sUA Responders
[5] = Week 28 - Pre-Infusion, mITT, n=8
[6] = Week 30 - Pre-Infusion, Month 6 sUA Responders
[7] = Week 30 - Pre-Infusion, mITT, n=8
[8] = Week 32 - Post-Infusion, Month 6 sUA Responders
[9] = Week 32 - Post-Infusion, mITT, n=8
[10] = Week 32 - Pre-Infusion, Month 6 sUA Responders
[11] = Week 32 - Pre-Infusion, mITT, n=10
[12] = Week 34 - Post-Infusion, Month 6 sUA Responders
[13] = Week 34 - Post-Infusion, mITT, n=8

B1: pegloticase (protein)
chain: TYKKNDEVEFVRTGYGKDMIKVLHIQRDGKYHSIKEVATTVQLTLSSKKDYLHGDNSDVIPTDTIKNTVNVLAKFKGIKSIETFAVTICEHFLSSFKHVIRAQVYVEEVPWKRFEKNGVKHVHAFIYTPTGTHFCEVEQIRNGPPVIHSGIKDLKVLKTTQSGFEGFIKDQFTTLPEVKDRCFATQVYCKWRYHQGRDVDFEATWDTVRSIVLQKFAGPYDKGEYSPSVQKTLYDIQVLTLGQVPEIEDMEISLPNIHYLNIDMSKMGLINKEEVLLPLDNPYGKITGTVKRKLSSRL
modifications: monomethoxy PEG conjugated; Krystexxa Sequence
notes: covalent conjugate of uricase produced by a genetically modified strain of Escherichia coli and monomethoxypoly (ethylene glycol)
With B1 as the molecule, how does the “sUA < 6 mg/dL, n (%)” value [1] read?
Its value is 11 (100%).

And the “sUA Change from Baseline, Mean (SD)” value [1]?
Its value is −8.97 (2.810) mg/dL.

What about the “sUA Change from Baseline, Median” value [1] of the same molecule?
Its value is -8.80 mg/dL.

What about the “sUA Observed, Mean (SD)” value [1] of the same molecule?
The value was 0.30 (0.000) mg/dL.

And the “sUA Observed, Median” value [1]?
The value was 0.30 mg/dL.

What about the “sUA < 6 mg/dL, %” value [2] of the same molecule?
The value was “(100%)”.

What about the “sUA Change from Baseline, Mean” value [2] of the same molecule?
Its value is -9.11 mg/dL.

What about the “sUA Change from Baseline, Median” value [2] of the same molecule?
The value was -8.95 mg/dL.

What about the “sUA Observed, Mean” value [2] of the same molecule?
The value was 0.30 mg/dL.

What about the “sUA Observed, Median” value [2] of the same molecule?
Its value is 0.30 mg/dL.

What about the “sUA < 6 mg/dL, n (%)” value [3] of the same molecule?
The value was 8 (100%).

What about the “sUA Change from Baseline, Mean (SD)” value [3] of the same molecule?
Its value is −9.11 (3.293) mg/dL.

What about the “sUA Change from Baseline, Median” value [3] of the same molecule?
Its value is -8.95 mg/dL.

What about the “sUA Observed, Mean (SD)” value [3] of the same molecule?
Its value is 0.30 (0.000) mg/dL.

What about the “sUA Observed, Median” value [3] of the same molecule?
The value was 0.30 mg/dL.

And the “sUA < 6 mg/dL, %” value [4]?
The value was “(100%)”.

What about the “sUA Change from Baseline, Mean” value [4] of the same molecule?
Its value is -9.11 mg/dL.

And the “sUA Change from Baseline, Median” value [4]?
The value was -8.95 mg/dL.

What about the “sUA Observed, Mean” value [4] of the same molecule?
The value was 0.30 mg/dL.

What about the “sUA Observed, Median” value [4] of the same molecule?
Its value is 0.30 mg/dL.

What about the “sUA < 6 mg/dL, n (%)” value [5] of the same molecule?
Its value is 8 (100%).

What about the “sUA Change from Baseline, Mean (SD)” value [5] of the same molecule?
Its value is −9.11 (3.293) mg/dL.

And the “sUA Change from Baseline, Median” value [5]?
The value was -8.95 mg/dL.

And the “sUA Observed, Mean (SD)” value [5]?
The value was 0.30 (0.000) mg/dL.

And the “sUA Observed, Median” value [5]?
Its value is 0.30 mg/dL.

And the “sUA < 6 mg/dL, %” value [6]?
Its value is “(100%)”.

What about the “sUA Change from Baseline, Mean” value [6] of the same molecule?
The value was -9.11 mg/dL.

What about the “sUA Change from Baseline, Median” value [6] of the same molecule?
The value was -8.95 mg/dL.

What about the “sUA Observed, Mean” value [6] of the same molecule?
The value was 0.30 mg/dL.

And the “sUA Observed, Median” value [6]?
The value was 0.30 mg/dL.

What about the “sUA < 6 mg/dL, n (%)” value [7] of the same molecule?
Its value is 8 (100%).

And the “sUA Change from Baseline, Mean (SD)” value [7]?
Its value is −9.11 (3.293) mg/dL.

And the “sUA Change from Baseline, Median” value [7]?
The value was -8.95 mg/dL.

And the “sUA Observed, Mean (SD)” value [7]?
The value was 0.30 (0.000) mg/dL.

And the “sUA Observed, Median” value [7]?
Its value is 0.30 mg/dL.

What about the “sUA < 6 mg/dL, %” value [8] of the same molecule?
Its value is “(100%)”.

What about the “sUA Change from Baseline, Mean” value [8] of the same molecule?
The value was -9.11 mg/dL.

What about the “sUA Change from Baseline, Median” value [8] of the same molecule?
The value was -8.95 mg/dL.

What about the “sUA Observed, Mean” value [8] of the same molecule?
Its value is 0.30 mg/dL.

What about the “sUA Observed, Median” value [8] of the same molecule?
The value was 0.30 mg/dL.

And the “sUA < 6 mg/dL, n (%)” value [9]?
Its value is 8 (100%).

And the “sUA Change from Baseline, Mean (SD)” value [9]?
Its value is −9.11 (3.293) mg/dL.

What about the “sUA Change from Baseline, Median” value [9] of the same molecule?
Its value is -8.95 mg/dL.

What about the “sUA Observed, Mean (SD)” value [9] of the same molecule?
The value was 0.30 (0.000) mg/dL.

And the “sUA Observed, Median” value [9]?
Its value is 0.30 mg/dL.

And the “sUA < 6 mg/dL, %” value [10]?
The value was “(100%)”.

And the “sUA Change from Baseline, Mean” value [10]?
Its value is -8.99 mg/dL.

What about the “sUA Change from Baseline, Median” value [10] of the same molecule?
The value was -8.95 mg/dL.

What about the “sUA Observed, Mean” value [10] of the same molecule?
Its value is 0.30 mg/dL.

What about the “sUA Observed, Median” value [10] of the same molecule?
The value was 0.30 mg/dL.

And the “sUA < 6 mg/dL, n (%)” value [11]?
Its value is 10 (100%).

What about the “sUA Change from Baseline, Mean (SD)” value [11] of the same molecule?
The value was −8.99 (2.961) mg/dL.

And the “sUA Change from Baseline, Median” value [11]?
The value was -8.95 mg/dL.

And the “sUA Observed, Mean (SD)” value [11]?
The value was 0.30 (0.000) mg/dL.

What about the “sUA Observed, Median” value [11] of the same molecule?
The value was 0.30 mg/dL.

And the “sUA < 6 mg/dL, %” value [12]?
Its value is “(100%)”.

What about the “sUA Change from Baseline, Mean” value [12] of the same molecule?
The value was -9.11 mg/dL.

What about the “sUA Change from Baseline, Median” value [12] of the same molecule?
The value was -8.95 mg/dL.

What about the “sUA Observed, Mean” value [12] of the same molecule?
The value was 0.30 mg/dL.

And the “sUA Observed, Median” value [12]?
Its value is 0.30 mg/dL.

And the “sUA < 6 mg/dL, n (%)” value [13]?
The value was 8 (100%).

What about the “sUA Change from Baseline, Mean (SD)” value [13] of the same molecule?
Its value is −9.11 (3.293) mg/dL.

And the “sUA Change from Baseline, Median” value [13]?
Its value is -8.95 mg/dL.

And the “sUA Observed, Mean (SD)” value [13]?
Its value is 0.30 (0.000) mg/dL.

And the “sUA Observed, Median” value [13]?
Its value is 0.30 mg/dL.
